{"source": "paper PMC7241105", "target": "SARS-CoV-2 receptor binding domain (RBD) (SARS-CoV-2) (UniProt P0DTC2)", "assay": "BLI", "data": [{"substance": "CV30 (antibody)", "values": [{"measurement": "Kd", "value": 3.6, "unit": "nM"}]}]}
